Experimental data: IntAct's records for PubMed 30126976

B1: FERM and PDZ domain-containing protein 4 (Homo sapiens), Q14CM0 (parent)
chain: MDVFSFVKIAKLSSHRTKSSGWPPPSGTWGLSQVPPYGWEMTANRDGRDYFINHMTQAIPFDDPRLESCQIIPPAPRKVEMRRDPVLGFGFVAGSEKPVVVRSVTPGGPSEGKLIPGDQIVMINDEPVSAAPRERVIDLVRSCKESILLTVIQPYPSPKSAFISAAKKARLKSNPVKVRFSEEVIINGQVSETVKDNSLLFMPNVLKVYLENGQTKSFRFDCSTSIKDVILTLQEKLSIKGIEHFSLMLEQRTEGAGTKLLLLHEQETLTQVTQRPSSHKMRCLFRISFVPKDPIDLLRRDPVAFEYLYVQSCNDVVQERFGPELKYDIALRLAALQMYIATVTTKQTQKISLKYIEKEWGLETFLPSAVLQSMKEKNIKKALSHLVKANQNLVPPGKKLSALQAKVHYLKFLSDLRLYGGRVFKATLVQAEKRSEVTLLVGPRYGISHVINTKTNLVALLADFSHVNRIEMFSEEESLVRVELHVLDVKPITLLMESSDAMNLACLTAGYYRLLVDSRRSIFNMANKKNTATQETGPENKGKHNLLGPDWNCIPQMTTFIGEGEQEAQITYIDSKQKTVEITDSTMCPKEHRHLYIDNAYSSDGLNQQLSQPGEAPCEADYRSLAQRSLLTLSGPETLKKAQESPRGAKVSFIFGDFALDDGISPPTLGYETLLDEGPEMLEKQRNLYIGSANDMKGLDLTPEAEGIQFVENSVYANIGDVKSFQAAEGIEEPLLHDICYAENTDDAEDEDEVSCEEDLVVGEMNQPAILNLSGSSDDIIDLTSLPPPEGDDNEDDFLLRSLNMAIAAPPPGFRDSSDEEDSQSQAASFPEDKEKGSSLQNDEIPVSLIDAVPTSAEGKCEKGLDNAVVSTLGALEALSVSEEQQTSDNSGVAILRAYSPESSSDSGNETNSSEMTESSELATAQKQSENLSRMFLATHEGYHPLAEEQTEFPASKTPAGGLPPKSSHALAARPATDLPPKVVPSKQLLHSDHMEMEPETMETKSVTDYFSKLHMGSVAYSCTSKRKSKLADGEGKAPPNGNTTGKKQQGTKTAEMEEEASGKFGTVSSRDSQHLSTFNLERTAFRKDSQRWYVATEGGMAEKSGLEAATGKTFPRASGLGAREAEGKEEGAPDGETSDGSGLGQGDRFLTDVTCASSAKDLDNPEDADSSTCDHPSKLPEADESVARLCDYHLAKRMSSLQSEGHFSLQSSQGSSVDAGCGTGSSGSACATPVESPLCPSLGKHLIPDASGKGVNYIPSEERAPGLPNHGATFKELHPQTEGMCPRMTVPALHTAINTEPLFGTLRDGCHRLPKIKETTV
B2: A-kinase anchor protein 1, mitochondrial (Homo sapiens), Q92667 (parent)
chain: MAIQFRSLFPLALPGMLALLGWWWFFSRKKGHVSSHDEQQVEAGAVQLRADPAIKEPLPVEDVCPKVVSTPPSVTEPPEKELSTVSKLPAEPPALLQTHPPCRRSESSGILPNTTDMRLRPGTRRDDSTKLELALTGGEAKSIPLECPLSSPKGVLFSSKSAEVCKQDSPFSRVPRKVQPGYPVVPAEKRSSGERARETGGAEGTGDAVLGEKVLEEALLSREHVLELENSKGPSLASLEGEEDKGKSSSSQVVGPVQEEEYVAEKLPSRFIESAHTELAKDDAAPAPPVADAKAQDRGVEGELGNEESLDRNEEGLDRNEEGLDRNEESLDRNEEGLDRNEEIKRAAFQIISQVISEATEQVLATTVGKVAGRVCQASQLQGQKEESCVPVHQKTVLGPDTAEPATAEAAVAPPDAGLPLPGLPAEGSPPPKTYVSCLKSLLSSPTKDSKPNISAHHISLASCLALTTPSEELPDRAGILVEDATCVTCMSDSSQSVPLVASPGHCSDSFSTSGLEDSCTETSSSPRDKAITPPLPESTVPFSNGVLKGELSDLGAEDGWTMDAEADHSGGSDRNSMDSVDSCCSLKKTESFQNAQAGSNPKKVDLIIWEIEVPKHLVGRLIGKQGRYVSFLKQTSGAKIYISTLPYTQSVQICHIEGSQHHVDKALNLIGKKFKELNLTNIYAPPLPSLALPSLPMTSWLMLPDGITVEVIVVNQVNAGHLFVQQHTHPTFHALRSLDQQMYLCYSQPGIPTLPTPVEITVICAAPGADGAWWRAQVVASYEETNEVEIRYVDYGGYKRVKVDVLRQIRSDFVTLPFQGAEVLLDSVMPLSDDDQFSPEADAAMSEMTGNTALLAQVTSYSPTGLPLIQLWSVVGDEVVLINRSLVERGLAQWVDSYYTSL
B3: Solute carrier family 15 member 5 (Homo sapiens), A6NIM6 (parent)
chain: MSVTGFTITDEKVHLYHSIEKEKTVRHIGDLCSSHSVKKIQVGICLLLVELCERFTFFEVVCNMIPFCTIKLGYHNCQAAILNLCFIGTSILTPVFVRWLTDVYLGRNKLVYICLFLHFLGTALLSVVAFPLEDFYLGTYHAVNNIPKTEQHRLFYVALLTICLGIGGVRAIVCPLGAFGLQEYGSQKTMSFFNWFYWLMNLNATIVFLGISYIQHSQAWALVLLIPFMSMLMAVITLHMIYYNLIYQSEKRCSLLTGVGVLVSALKTCHPQYCHLGRDVTSQLDHAKEKNGGCYSELHVEDTTFFLTLLPLFIFQLLYRMCIMQIPSGYYLQTMNSNLNLDGFLLPIAVMNAISSLPLLILAPFLEYFSTCLFPSKRVGSFLSTCIIAGNLFAALSVMIAGFFEIHRKHFPAVEQPLSGKVLTVSSMPCFYLILQYVLLGVAETLVNPALSVISYRFVPSNVRGTSMNFLTLFNGFGCFTGALLVKLVYLISDGNWFPNTLNKGNLESFFFFLASLTLLNVLGFCSVSQRYCNLNHFNAQNIRGSNLEETLLLHEKSLKFYGSIQEFSSSIDLWETAL
B4: FAST kinase domain-containing protein 5, mitochondrial (Homo sapiens), Q7L8L6 (parent)
chain: MAATLKSLKLVRYRAFCSPSAFGAVRSVSYWNVSSTQHGGQDPPEHISLCHSAKKVKNICSTFSSRRILTTSSAHPGLEFSKTSSSKASTLQLGSPRATGVDEEDVEVFDSFENMRVFLQLRPEYRVHSYNASETSQLLSVSEGELILHKVRVNQNNLQAQVIVDYLCKLSSLPAEQHPVLLGSTSFALLCQLSVKKIQLFDTQDLINVLKAFVILGIPHSHSMLDVYETKCCHQVWEMNMDQLLLVADLWRYLGRKVPRFLNIFSSYLNLHWKDLSLSQLVHLIYVIGENRQVSQDLMQKLESLILKYIDLINLEEVGTICLGFFKSSTNLSEFVMRKIGDLACANIQHLSSRSLVNIVKMFRFTHVDHINFMKQIGEIAPQRIPSLGVQGVMHLTLYCSALRFLNEGVMNAVAASLPPRVAHCRSKDVAKILWSFGTLNYKPPNAEEFYSSLISEIHRKMPEFNQYPEHLPTCLLGLAFLEYFPVELIDFALSPGFVRLAQERTKFDLLKELYTLDGTVGIECPDYRGNRLSTHLQQEGSELLWYLAEKDMNSKPEFLETVFLLETMLGGPQYVKHHMILPHTRSSDLEVQLDVNLKPLPFNREATPAENVAKLRLEHVGVSLTDDLMNKLLKGKARGHFQGKTESEPGQQPMELENKAAVPLGGFLCNVADKSGAMEMAGLCPAACMQTPRMKLAVQFTNRNQYCYGSRDLLGLHNMKRRQLARLGYRVVELSYWEWLPLLKRTRLEKLAFLHEKVFTSAL
B5: Ecotropic viral integration site 5 protein homolog (Homo sapiens), O60447 (parent)
chain: MVTNKMTAAFRNPSGKQVATDKVAEKLSSTLSWVKNTVSHTVSQMASQVASPSTSLHTTSSSTTLSTPALSPSSPSQLSPDDLELLAKLEEQNRLLETDSKSLRSVNGSRRNSGSSLVSSSSASSNLSHLEEDSWILWGRIVNEWEDVRKKKEKQVKELVHKGIPHHFRAIVWQLLCSAQSMPIKDQYSELLKMTSPCEKLIRRDIARTYPEHNFFKEKDSLGQEVLFNVMKAYSLVDREVGYCQGSAFIVGLLLMQMPEEEAFCVFVKLMQDYRLRELFKPSMAELGLCMYQFECMIQEHLPELFVHFQSQSFHTSMYASSWFLTIFLTTFPLPIATRIFDIFMSEGLEIVFRVGLALLQMNQAELMQLDMEGMLQHFQKVIPHQFDGVPDKLIQAAYQVKYNSKKMKKLEKEYTTIKTKEMEEQVEIKRLRTENRLLKQRIETLEKHKCSSNYNEDFVLQLEKELVQARLSEAESQCALKEMQDKVLDIEKRNNSLPDENNIARLQEELIAVKLREAEAIMGLKELRQQVKDLEEHWQRHLARTTGRWKDPPKKNAMNELQDELMTIRLREAETQAEIREIKQRMMEMETQNQINSNHLRRAEQEVISLQEKVQYLSAQNKGLLTQLSEAKRKQAEIECKNKEEVMAVRLREADSIAAVAELRQHIAELEIQKEEGKLQGQLNKSDSNQYIGELKDQIAELNHELRCLKGQRGFSGQPPFDGIHIVNHLIGDDESFHSSDEDFIDNSLQETGVGFPLHGKSGSMSLDPAVADGSESETEDSVLETRESNQVVQKERPPRRRESYSTTV

Variants of: B1
Conditions: with scrib_human SCRIB
Target sequence in this assay (Q14160 whole entry): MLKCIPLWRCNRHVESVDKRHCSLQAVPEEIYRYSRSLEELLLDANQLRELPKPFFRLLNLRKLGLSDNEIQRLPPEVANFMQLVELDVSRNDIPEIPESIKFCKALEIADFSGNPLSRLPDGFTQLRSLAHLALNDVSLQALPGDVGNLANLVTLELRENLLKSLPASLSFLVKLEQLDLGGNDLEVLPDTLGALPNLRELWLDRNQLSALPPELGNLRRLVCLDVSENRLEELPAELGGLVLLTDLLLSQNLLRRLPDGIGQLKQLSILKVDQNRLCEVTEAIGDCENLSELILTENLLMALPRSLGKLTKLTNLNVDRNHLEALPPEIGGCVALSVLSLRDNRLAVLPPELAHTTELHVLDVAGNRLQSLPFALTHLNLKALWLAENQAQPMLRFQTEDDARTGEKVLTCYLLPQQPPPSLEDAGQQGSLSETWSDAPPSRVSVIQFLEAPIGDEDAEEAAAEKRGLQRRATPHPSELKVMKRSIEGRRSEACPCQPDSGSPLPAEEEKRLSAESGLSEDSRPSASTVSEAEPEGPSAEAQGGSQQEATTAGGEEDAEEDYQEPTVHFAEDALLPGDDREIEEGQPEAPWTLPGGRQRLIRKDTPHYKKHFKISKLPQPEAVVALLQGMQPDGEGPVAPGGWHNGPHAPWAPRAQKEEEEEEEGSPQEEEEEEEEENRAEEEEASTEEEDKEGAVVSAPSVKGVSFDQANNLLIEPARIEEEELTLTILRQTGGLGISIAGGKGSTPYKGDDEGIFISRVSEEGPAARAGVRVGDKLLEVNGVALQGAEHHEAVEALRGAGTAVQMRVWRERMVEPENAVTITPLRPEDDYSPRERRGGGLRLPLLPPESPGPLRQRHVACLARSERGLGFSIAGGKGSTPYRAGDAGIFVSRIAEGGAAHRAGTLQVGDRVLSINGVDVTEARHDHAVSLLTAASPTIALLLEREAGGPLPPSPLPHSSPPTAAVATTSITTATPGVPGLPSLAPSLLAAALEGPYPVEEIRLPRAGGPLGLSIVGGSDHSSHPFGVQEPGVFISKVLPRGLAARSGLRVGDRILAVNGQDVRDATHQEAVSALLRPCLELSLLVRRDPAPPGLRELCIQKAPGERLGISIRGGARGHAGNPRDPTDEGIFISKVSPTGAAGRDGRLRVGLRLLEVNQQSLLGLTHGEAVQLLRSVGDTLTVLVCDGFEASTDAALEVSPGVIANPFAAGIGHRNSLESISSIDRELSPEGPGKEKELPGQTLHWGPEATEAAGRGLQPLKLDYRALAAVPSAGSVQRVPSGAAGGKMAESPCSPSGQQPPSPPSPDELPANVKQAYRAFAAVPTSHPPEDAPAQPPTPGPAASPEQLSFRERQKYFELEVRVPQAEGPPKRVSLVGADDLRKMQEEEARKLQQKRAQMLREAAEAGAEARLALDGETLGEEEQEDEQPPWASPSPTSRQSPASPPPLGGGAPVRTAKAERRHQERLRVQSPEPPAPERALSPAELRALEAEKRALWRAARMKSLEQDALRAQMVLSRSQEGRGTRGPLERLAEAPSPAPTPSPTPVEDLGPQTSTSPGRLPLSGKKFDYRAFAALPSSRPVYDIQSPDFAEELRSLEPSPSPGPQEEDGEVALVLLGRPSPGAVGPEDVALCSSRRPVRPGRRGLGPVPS

Variant | effect of a mutation on the interaction
T1320E | disrupting interaction strength

Variants of: B1
Conditions: with dlg1_human DLG1, Q12959
Target sequence in this assay (Q12959 whole entry, looked up): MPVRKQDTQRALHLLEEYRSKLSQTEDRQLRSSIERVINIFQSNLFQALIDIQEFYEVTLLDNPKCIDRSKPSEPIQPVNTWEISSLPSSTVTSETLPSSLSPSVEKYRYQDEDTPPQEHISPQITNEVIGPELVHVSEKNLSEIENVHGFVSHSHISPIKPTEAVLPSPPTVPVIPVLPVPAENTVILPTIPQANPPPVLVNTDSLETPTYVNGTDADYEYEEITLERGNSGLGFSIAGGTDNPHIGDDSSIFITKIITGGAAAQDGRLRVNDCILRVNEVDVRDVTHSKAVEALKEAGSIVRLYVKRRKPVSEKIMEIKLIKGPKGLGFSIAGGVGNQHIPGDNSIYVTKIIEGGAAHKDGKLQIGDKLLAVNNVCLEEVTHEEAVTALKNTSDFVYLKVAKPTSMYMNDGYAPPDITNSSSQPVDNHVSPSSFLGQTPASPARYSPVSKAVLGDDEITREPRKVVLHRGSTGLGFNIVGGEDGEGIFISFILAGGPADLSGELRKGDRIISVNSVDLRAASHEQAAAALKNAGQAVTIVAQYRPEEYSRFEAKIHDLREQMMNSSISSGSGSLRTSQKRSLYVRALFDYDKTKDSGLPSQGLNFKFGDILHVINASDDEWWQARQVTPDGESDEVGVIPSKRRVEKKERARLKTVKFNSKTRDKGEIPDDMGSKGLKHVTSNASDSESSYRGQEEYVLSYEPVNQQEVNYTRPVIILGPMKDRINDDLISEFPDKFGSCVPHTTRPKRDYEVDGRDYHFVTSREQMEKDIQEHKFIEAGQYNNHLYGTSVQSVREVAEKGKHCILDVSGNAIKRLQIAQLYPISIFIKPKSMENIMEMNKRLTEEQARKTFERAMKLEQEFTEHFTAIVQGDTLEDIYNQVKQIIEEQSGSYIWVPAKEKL

Variant | effect of a mutation on the interaction
T1320E | disrupting interaction strength

Variants of: B2
Conditions: with scrib_human SCRIB
Target sequence in this assay (Q14160 whole entry): as the sequence (Q14160 whole entry) above

Variant | effect of a mutation on the interaction
S902E | increasing interaction strength

Variants of: B3
Conditions: with scrib_human SCRIB
Target sequence in this assay (Q14160 whole entry): as above

Variant | effect of a mutation on the interaction
S571E | decreasing interaction strength

Variants of: B4
Conditions: with scrib_human SCRIB
Target sequence in this assay (Q14160 whole entry): as above

Variant | effect of a mutation on the interaction
T761E | causing an interaction

Variants of: B4
Conditions: with scrib_human SCRIB
Remark: another data set of the same source
Target sequence in this assay (Q14160 whole entry): as above

Variant | effect of a mutation on the interaction
T761E | increasing interaction strength

Variants of: B5
Conditions: with dlg1_human DLG1, Q12959
Target sequence in this assay (Q12959 whole entry, looked up): as the sequence (Q12959 whole entry, looked up) above

Variant | effect of a mutation on the interaction
S805E | decreasing interaction strength
